{
  "source": "patent US20070054848A1",
  "about": "“Composition and method for nerve regeneration” (priority 2003, published 2007)",
  "key": {"[1]": {"test_system": "RhoA complexed with Rho GDI", "test": "In vitro nucleotide exchange assay", "type": "biochemical", "details": "high Mg2+ concentrations; 90 nM Dbl", "method": "Lipid-modified RhoA was purified from yeast membranes as described (Forget, M. A., Desrosiers, R. R., Gingras, D. & Beliveau, R., Biochem. J. 361, 243-54(2002)). [^3H]GDP- or GDP-RhoA complexed with Rho GDI was obtained by first incubating GDP-RhoA with or without [^3H]GDP, followed by incubation with Rho GDI for 30 min, as described previously (Takahashi, K. et al., J. Biol. Chem. 272, 23371-23375 (1997)). The sample, subjected to gel filtration, was equilibrated with 20 mM Tris-HCl (pH 7.5) containing 5 mM MgCl2, 1 mM dithiothreitol and 0.1% CHAPS. The GDP dissociation and GTP binding assays were carried out by the filter binding method as described previously (Hart, M. J., Eva, A., Evans, T., Aaronson, S. A. & Cerione, R. A., Nature 354, 311-314 (1991)). In the [^3H]GDP dissociation assay, 50 nM of the complex was incubated for 20 min with various concentrations of GST-fused proteins in a reaction mixture (50 μl) containing 30 mM Tris-HCl (pH 7.5), 5 mM or 0.5 μM MgCl2, 1 (for low Mg) or 10 (for high Mg) mM EDTA, 0.1 mM GTP, 1 mM dithiothreitol, 0.12% CHAPS and 0.2 mg/ml bovine serum albumin. In the [^35S] GTPγS binding assay, the complex was incubated as described above except that 1 μM [^35S] GTPγS was used instead of 0.1 mM GTP. At the indicated time, an aliquot of the reaction sample was removed, and passed through nitrocellulose filters (IPVH 000, Millipore). […]"}, "nerve regeneration": {"test_system": "nerve regeneration", "test": "Similar experiments with modified amino acid agents (Example 2-8)", "method": "Similar experiments were carried out using Pep5 in which alanine was added to the C terminus of the sequence (SEQ ID NO: 2), antibodies for the extracellular domain of p75, and p75 in which alanine was replaced with valine at amino acid 423 in positions 273-427 of SEQ ID NO: 4."}},
  "data": [
    {"molecule": "p75 ICD: intracellular domain (ICD) of p75, GST-fused (protein, left off: a dimerising Fc or GST, intracellular domain (ICD) of p75, GST-fused) KRWNSCKQNKQGANSRPVNQTPPPEGEKLHSDSGISVDSQSLHDQQTHTQTASGQALKGDGNLYSSLPLTKREEVEKLLNGDTWRHLAGELGYQPEHIDSFTHEACPVRALLASWGAQDSATLDALLAALRRIQRADIVESLCSESTATSPV", "values": [
      {"measurement": "Dbl stimulated dissociation of GDP from GDP-RhoA complexed with Rho GDI", "setting": "[1]", "value": "showed the inhibitory effect to the same extent as p75 HD"}
    ]},
    {"molecule": "p75 in which alanine was replaced with valine at amino acid 423: p75 with alanine replaced with valine at amino acid 423 in positions 273-427 of SEQ ID NO: 4 (protein, listed as Homo sapiens) KRWNSCKQNKQGANSRPVNQTPPPEGEKLHSDSGISVDSQSLHDQQPHTQTASGQALKGDGGLYSSLPPAKREEVEKLLNGSAGDTWRHLAGELGYQPEHIDSFTHEACPVRALLASWATQDSATLDALLAALRRIQRADLVESLCSESTVTSPV", "values": [
      {"measurement": "nerve regeneration", "setting": "nerve regeneration", "value": "nerve regeneration was similarly observed"}
    ]}
  ]
}
